Assay results as given in publication PMC10764323.

Biological target: His-tAmSOD2 (Avicennia marina MnSOD, AmSOD2, without the mitochondrial transit peptide) (Avicennia marina)
Experiment: SEC; gel filtration chromatography on a calibrated Biosil-250 analytical column, elution compared with standard proteins; native mass of almost 116 kDa against a single band of 26 kDa after SDS and DTT

His-tAmSOD2 (Avicennia marina MnSOD, AmSOD2, without the mitochondrial transit peptide) (enzyme)
stoichiometry N: 4
